What was measured:
[1] = test system: Kemptide (a peptide substrate for PKA)
[2] = test system: protein phosphatase inhibitor 2 (I-2)

Row | Substance | phosphorylation (33P-γ-ATP, autoradiography emulsion on slide) (Elk1) | phosphorylation (33P-γ-ATP, autoradiography emulsion on slide) [1] | phosphorylation (33P-γ-ATP, autoradiography emulsion on slide) [2]
1 | casein kinase II (CKII) | only the specific substrates of these kinases (I-2 and Elk1, respectively) were phosphorylated (Elk1 not phosphorylated by CKII) | only the specific substrates of these kinases (I-2 and Elk1, respectively) were phosphorylated (Kemptide not phosphorylated by CKII) | only the specific substrates of these kinases (I-2 and Elk1, respectively) were phosphorylated
2 | catalytic subunit of cAMP-dependent protein kinase (PKA) | only the substrate for PKA (Kemptide) was phosphorylated (Elk1 not phosphorylated) | only the substrate for PKA (Kemptide) was phosphorylated | only the substrate for PKA (Kemptide) was phosphorylated (I-2 not phosphorylated)
3 | p42 MAP kinase (Erk2) | only the specific substrates of these kinases (I-2 and Elk1, respectively) were phosphorylated | only the specific substrates of these kinases (I-2 and Elk1, respectively) were phosphorylated (Kemptide not phosphorylated by Erk2) | only the specific substrates of these kinases (I-2 and Elk1, respectively) were phosphorylated (I-2 not phosphorylated by Erk2)

Source: patent US20020102617
